US20100297664A1 (NATIONAL INSTITUTE OF ADVANCE INDUSTRIAL SCIENCE AND …, published 2010)

Assays:
Test in all cases: peptide microarray (RepliTope)
[1] = biological target: T1, SEQ ID NO 67 (human)
T1 construct: 15-mer of the human mortalin 348-450 array
T1 peptide: PKVQQTVQDLFGRAP
Protocol: (§1) Eighty nine (89) peptides (15 amino acids each) which were designed to each be shifted by one amino acid on the amino acid sequence ranging from position 348 to position 450 of human mortalin containing the amino acid sequence (SEQ ID NO: 56) ranging from the above position 381 to position 410, were chemically synthesized. Epitope mapping (RepliTope mapping) analysis was then carried out on them using a Tecon HS400 microarray analysis station (FIG. 14).
(§2) Background measurement was carried out for each microarray using an Axon Genepix scanner, so that it was confirmed that no signals were detected. All microarrays were treated using a blocking buffer (Pierce, Puperblock TBS #37536).
(§3) As anti-mortalin monoclonal antibodies having the cellular internalizing function, two antibodies 37-6 and 38-4 were prepared. Antibody 53-3 that is an anti-mortalin antibody not having the cellular internalizing function was prepared for comparison. Each antibody (30 μg/mL, 200 μL) diluted with a blocking buffer was applied to microarrays and then incubated. After the microarrays were washed 3 instances with a TBS buffer containing 0.1% T20, a fluorescence-labeled secondary antibody (1 μg/mL, anti-mouse-Dylight 649; Pierce #35515) was applied thereto and then incubated. Similarly, a control array subjected to incubation with only the secondary antibody was also treated so as to confirm no detected signals.

[2] = biological target: T2, SEQ ID NO 81 (human)
T2 construct: 15-mer of the human mortalin 348-450 array
T2 peptide: TRMPKVQQTVQDLFG
Protocol: as §1, §2, §3

[3] = biological target: T3, SEQ ID NO 73 (human)
T3 construct: 15-mer of the human mortalin 348-450 array; by its order peptide #52 (inferred)
T3 peptide: VQDLFGRAPSKAVNP
Protocol: as §1, §2, §3

[4] = biological target: T4, SEQ ID NO 70 (human)
T4 construct: 15-mer of the human mortalin 348-450 array; by its order peptide #49 (inferred)
T4 peptide: QQTVQDLFGRAPSKA
Protocol: as §1, §2, §3

[5] = biological target: T5, SEQ ID NO 68 (human)
T5 construct: 15-mer of the human mortalin 348-450 array; by its order peptide #47 (inferred)
T5 peptide: KVQQTVQDLFGRAPS
Protocol: as §1, §2, §3

[6] = biological target: T6, SEQ ID NO 78 (human)
T6 construct: 15-mer of the human mortalin 348-450 array
T6 peptide: GEVILVGGMTRMPKV
Protocol: as §1, §2, §3

[7] = biological target: T7, SEQ ID NO 76 (human)
T7 construct: 15-mer of the human mortalin 348-450 array; by its order peptide #55 (inferred)
T7 peptide: LFGRAPSKAVNPDEA
Protocol: as §1, §2, §3

[8] = biological target: T8, SEQ ID NO 77 (human)
T8 construct: 15-mer of the human mortalin 348-450 array
T8 peptide: KAMQDAEVSKSDIGE
Protocol: as §1, §2, §3

[9] = biological target: T9, SEQ ID NO 82 (human)
T9 construct: 15-mer of the human mortalin 348-450 array
T9 peptide: RMPKVQQTVQDLFGR
Protocol: as §1, §2, §3

[10] = biological target: T10, SEQ ID NO 79 (human)
T10 construct: 15-mer of the human mortalin 348-450 array
T10 peptide: EVILVGGMTRMPKVQ
Protocol: as §1, §2, §3

[11] = biological target: T11, SEQ ID NO 74 (human)
T11 construct: 15-mer of the human mortalin 348-450 array; by its order peptide #53 (inferred)
T11 peptide: QDLFGRAPSKAVNPD
Protocol: as §1, §2, §3

[12] = biological target: T12, SEQ ID NO 80 (human)
T12 construct: 15-mer of the human mortalin 348-450 array
T12 peptide: GMTRMPKVQQTVQDL
Protocol: as §1, §2, §3

[13] = biological target: T13, SEQ ID NO 71 (human)
T13 construct: 15-mer of the human mortalin 348-450 array; by its order peptide #50 (inferred)
T13 peptide: QTVQDLFGRAPSKAV
Protocol: as §1, §2, §3

[14] = biological target: T14, SEQ ID NO 72 (human)
T14 construct: 15-mer of the human mortalin 348-450 array; by its order peptide #51 (inferred)
T14 peptide: TVQDLFGRAPSKAVN
Protocol: as §1, §2, §3

[15] = biological target: T15, SEQ ID NO 69 (human)
T15 construct: 15-mer of the human mortalin 348-450 array; by its order peptide #48 (inferred)
T15 peptide: VQQTVQDLFGRAPSK
Protocol: as §1, §2, §3

[16] = biological target: T16, SEQ ID NO 75 (human)
T16 construct: 15-mer of the human mortalin 348-450 array; by its order peptide #54 (inferred)
T16 peptide: DLFGRAPSKAVNPDE
Protocol: as §1, §2, §3

Measured: binding result

B1: anti-mortalin monoclonal antibody 52-3 (antibody, V domains shown)
VH: QVQLQQPGAELVKPGASVKLSCKASGYTFTSYWMHWVKQRPGQGLEWIGEINPSNGRTNYNEKFKSKATLTVDKSSSTAYMQLSSLTSEDSAVYYCARSRYYGSCYFDYWGQGTTLTVSS
VL: KIVMTQAAFSNPVTLGTSASISCRSSKSLLYSNGITYLYWYLQKPGQSPQLLIYQMSNLASGVPDRFSSSGSGTDFTLRISRVEAEDVGVYYCAQNLELPWTFGGGTKLEIK
notes: also called 52-3 antibody; non-internalization antibody
no binding (tested: 30 µg/mL): all assays above
